In patent publication US20060046250A1 (SEOUL NATIONAL UNIVERSITY INDUSTRY FOUNDATION, published 2006):

Molecular target: T1, GST-AIM3 fusion protein (human, UniProt O43324 1-174)
T1 construct: Immobilised on glutathione-sepharose beads; also called GST-fused AIM3; GST-fused AIM3 protein; not shown: glutathione S-transferase (GST) fusion partner from the Pharmacia system; The vector, the linker and the order of the fu
T1 sequence: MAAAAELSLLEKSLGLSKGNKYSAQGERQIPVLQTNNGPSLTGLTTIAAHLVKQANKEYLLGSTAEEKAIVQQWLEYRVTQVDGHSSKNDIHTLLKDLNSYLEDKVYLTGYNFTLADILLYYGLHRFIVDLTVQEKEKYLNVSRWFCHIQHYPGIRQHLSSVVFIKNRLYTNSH
Assay: GST pull-down of in vitro translated, radiolabelled fragment, autoradiography
Text: First, AIM3 was expressed as GST fusion protein and purified according to the manufacturer's protocol (Pharmacia). Meanwhile, since it was difficult to synthesize the whole ATM due to its large size, the present inventors tested the interaction between the functional domain of ATM and AIM3. For this purpose, a fragment consisting of 612 amino acids, including the FAT domain of an ATM structure, was amplified by PCR with primers shown in SEQ ID NO: 12 and SEQ ID NO: 13. Also, a fragment (control group) consisting of 145 amino acids, including the C-terminal domain, was amplified by PCR with primers shown in SEQ ID NO: 14 and SEQ ID NO: 15. Then, the amplified PCR products were subdloned into pcDNA3.1 (Invitrogen), a vector suitable for in vitro transcription and […]. At this time, the protein was synthesized by in vitro translation in the presence of radioactive methionine. 10 μl of the synthesized TNT product was incubated with the GST- or GST-AIM3 fusion protein-immobilized glutathion-sepharose beads for 5 minutes. Then, the beads were washed six times with a binding buffer (PBS containing 0.2% sarcosine and 0.2% Triton X100), and dissolved in 10% SDS-PAGE. The binding of the GST-fused AIM3 to each domain was determined by autoradiography.

B1: ATM fragment consisting of 145 amino acids, including the C-terminal domain (other, UniProt Q13315 2912-3056, looked up)
chain: RDIVDGMGITGVEGVFRRCCEKTMEVMRNSQETLLTIVEVLLYDPLFDWTMNPLKALYLQQRPEDETELHPTLNADDQECKRNLSDIDQSFNKVAERVLMRLQEKLKGVEEGTVLSVGGQVNLLIQQAIDPKNLSRLFPGWKAWV
modifications: radioactive methionine (in vitro translated)
notes: domain: C-terminal domain; Made by in vitro transcription and translation from pcDNA3.1; Its limits are set only by the PCR primers; also called C-terminal domain of ATM; control group fragment
B1: no binding.
